According to the supplement of paper PMC7877785:
± gives the uncertainty stated by the source.

Test: self-splicing fitness, log relative to wild type (ln ratio); higher = more splicing; Tetrahymena group I intron in knt gene, E. coli kanamycin selection, DiMSum; sequences stand for … in CUCUCU…GGAGGGAAAAGUUAUCAGGCAUGCACCUGGUAGCUAGUCUUUAAACCAAUAGAUUGCAUCGGUUUAAAAGGCAAGACCGUCAAAUUGCGGGAAAGGGGUCAACAGCCGUUCAGUACCAAGUCUCAGGGGAAACUUUGAGAUGGCCUUGCAAAGGGUAUGGUAAUAAGCUGACGGACAUGGUCCUAACCACGCAGCCAAGUCCUAAGUCAACAGAUCUUCUGUUGAUAUGGAUGCAGUUCACAGACUAAAUGUCGGUCGGGGAAGAUGUAUUCUUCUCAUAAGAUAUAGUCGGACCUCUCCUUAAUGGGAGCUAGCGGAUGAAGUGAUGCAACACUGGAGCCGCUGGGAACUAAUUUGUAUGCGAAAGUAUAUUGAUUAGUUUUGGAGUACUCGUGGUCG
Method in brief: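 Pooled colonies went to amplicon sequencing on an Illumina HiSeq 2500 after six replicate transformations. The plates were LB agar with 100 μg/mL carbenicillin, 50 μM IPTG and 0.2% rhamnose, with or without 25 μg/mL kanamycin, incubated overnight at 37°C or 30°C. The E. coli BL21(DE3) library had all eight P1ex-region intron nucleotides randomised, the intron placed in the knt kanamycin-resistance gene on pET-22b(+). DiMSum fitness is the error-weighted combination of replicate fold changes, kanamycin against none, normalised to wild type.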

Row | Sequence | self-splicing fitness (ln) (30 °C) | self-splicing fitness (ln) (37 °C)
1 | AGCGAGCAAUAUUACGGUCA | -2.05 ± 0.12 | -0.626 ± 0.11
2 | AGCGAGCAAUAUUACGGUUG | -2.69 ± 0.24 | -2.05 ± 0.21
3 | AGCGAGCAAUAUUACGUGAU | -2.98 ± 0.21 | -3.09 ± 0.35
4 | AGCGAGCAAUAUUACGUGUA | -2.83 ± 0.12 | -1.98 ± 0.13
5 | AGCGAGCAAUAUUACGUGUG | -3.86 ± 0.22 | -2.88 ± 0.17
6 | AGCGAGCAAUAUUACGUGUU | -3.06 ± 0.16 | -2.79 ± 0.26
7 | AGCGAGCAAUAUUACGUUUG | -3.44 ± 0.2 | -3.64 ± 0.31
8 | AGCUAGCAAUAUUACGAAGU | -4.06 ± 0.32 | -1.73 ± 0.26
9 | AGCUAGCAAUAUUACGACAA | -1.68 ± 0.18 | -1.34 ± 0.15
10 | AGCUAGCAAUAUUACGAGCA | -1.16 ± 0.21 | 0.177 ± 0.17
11 | AGCUAGCAAUAUUACGAUAC | -3.44 ± 0.49 | -1.59 ± 0.28
12 | AGCUAGCAAUAUUACGAUAU | -0.87 ± 0.17 | 0.27 ± 0.11
13 | AGCUAGCAAUAUUACGCAGU | -2.97 ± 0.19 | -2.02 ± 0.26
14 | AGCUAGCAAUAUUACGCGAU | -3 ± 0.31 | -2.14 ± 0.22
15 | AGCUAGCAAUAUUACGCGCC | -2.25 ± 0.23 | -2.04 ± 0.29
16 | AGCUAGCAAUAUUACGCGGG | -3.3 ± 0.15 | -1.53 ± 0.14
17 | AGCUAGCAAUAUUACGCUUU | -3.48 ± 0.25 | -2.57 ± 0.23
18 | AGCUAGCAAUAUUACGGAGG | -3.54 ± 0.16 | -1.33 ± 0.14
19 | AGCUAGCAAUAUUACGGCCC | -0.559 ± 0.2 | 0.0329 ± 0.35
20 | AGCUAGCAAUAUUACGGCUA | -0.83 ± 0.14 | -0.754 ± 0.15
21 | AGCUAGCAAUAUUACGGCUG | -0.696 ± 0.11 | -0.185 ± 0.14
22 | AGCUAGCAAUAUUACGGUAU | -1.44 ± 0.08 | -0.9 ± 0.1
23 | AGCUAGCAAUAUUACGUACA | -2.25 ± 0.23 | 0.0781 ± 0.18
24 | AGCUAGCAAUAUUACGUCAU | -2.65 ± 0.1 | -1.54 ± 0.1
25 | AGCUAGCAAUAUUACGUCGC | -3.1 ± 0.18 | -2.77 ± 0.36

Row | Sequence | self-splicing fitness (ln) (30 °C) | self-splicing fitness (ln) (37 °C)
26 | AGCUAGCAAUAUUACGUCGG | -2.97 ± 0.3 | -1.32 ± 0.26
27 | AGCUAGCAAUAUUACGUCUU | -0.517 ± 0.098 | 0.46 ± 0.14
28 | AGCUAGCAAUAUUACGUGCG | -1.02 ± 0.066 | -0.499 ± 0.091
29 | AGCUAGCAAUAUUACGUGGG | -4.49 ± 0.2 | -2.72 ± 0.15
30 | AGCUAGCAAUAUUACGUUAA | -2.49 ± 0.21 | -1.36 ± 0.14
31 | AGCUAGCAAUAUUACGUUAU | -4.39 ± 0.32 | -2.19 ± 0.17
32 | AGGAAGCAAUAUUACGAAAC | -2.83 ± 0.38 | –
33 | AGGAAGCAAUAUUACGAAAU | -3.06 ± 0.2 | -1.53 ± 0.18
34 | AGGAAGCAAUAUUACGACGC | -0.0969 ± 0.13 | -0.574 ± 0.14
35 | AGGAAGCAAUAUUACGACUA | 0.0184 ± 0.094 | -0.351 ± 0.12
36 | AGGAAGCAAUAUUACGAGGC | -3.01 ± 0.3 | -2.31 ± 0.34
37 | AGGAAGCAAUAUUACGAUAU | -3.48 ± 0.19 | -2.5 ± 0.12
38 | AGGAAGCAAUAUUACGAUGC | -2.26 ± 0.17 | -1.04 ± 0.22
39 | AGGAAGCAAUAUUACGAUGG | -2.53 ± 0.16 | -1.88 ± 0.21
40 | AGGAAGCAAUAUUACGCAAA | -1.79 ± 0.14 | -1.23 ± 0.14
41 | AGGAAGCAAUAUUACGCAGU | -3.41 ± 0.15 | -0.746 ± 0.095
42 | AGGAAGCAAUAUUACGCCUA | -0.554 ± 0.12 | -0.497 ± 0.14
43 | AGGAAGCAAUAUUACGCGUG | -1.49 ± 0.072 | -0.951 ± 0.092
44 | AGGAAGCAAUAUUACGGACG | -0.899 ± 0.13 | 0.276 ± 0.14
45 | AGGAAGCAAUAUUACGGCGG | -1.34 ± 0.085 | -0.207 ± 0.11
46 | AGGAAGCAAUAUUACGGGUU | -3.14 ± 0.15 | -1.96 ± 0.15
47 | AGGAAGCAAUAUUACGUAUG | -2.39 ± 0.14 | -2.3 ± 0.16
48 | AGGAAGCAAUAUUACGUGCU | -2.18 ± 0.17 | -0.868 ± 0.16
49 | AGGAAGCAAUAUUACGUGGU | -3.36 ± 0.15 | -2.61 ± 0.25
50 | AGGCAGCAAUAUUACGAACC | -0.0701 ± 0.18 | -1.03 ± 0.2

Row | Sequence | self-splicing fitness (ln) (30 °C) | self-splicing fitness (ln) (37 °C)
51 | AGGCAGCAAUAUUACGAUCU | 0.0214 ± 0.086 | 0.2 ± 0.12
52 | AGGCAGCAAUAUUACGCAAA | -1.43 ± 0.15 | -1 ± 0.2
53 | AGGCAGCAAUAUUACGCAAU | -2.26 ± 0.14 | -1.76 ± 0.094
54 | AGGCAGCAAUAUUACGCCCA | -0.718 ± 0.094 | -0.205 ± 0.15
55 | AGGCAGCAAUAUUACGCCUA | -1.98 ± 0.23 | -0.0372 ± 0.14
56 | AGGCAGCAAUAUUACGCGCG | -0.446 ± 0.12 | -0.358 ± 0.14
57 | AGGCAGCAAUAUUACGCGUG | -2.48 ± 0.13 | -0.717 ± 0.11
58 | AGGCAGCAAUAUUACGCUAU | -1.45 ± 0.088 | -0.464 ± 0.092
59 | AGGCAGCAAUAUUACGCUCA | -0.172 ± 0.079 | 0.0289 ± 0.12
60 | AGGCAGCAAUAUUACGCUCC | -3.69 ± 0.4 | -2.01 ± 0.33
61 | AGGCAGCAAUAUUACGGCGC | -1.13 ± 0.11 | 0.292 ± 0.18
62 | AGGCAGCAAUAUUACGGCUU | -2.17 ± 0.12 | -1.83 ± 0.16
63 | AGGCAGCAAUAUUACGGGAA | -3.59 ± 0.23 | -2.42 ± 0.18
64 | AGGCAGCAAUAUUACGGGUC | -2.67 ± 0.17 | -3.01 ± 0.22
65 | AGGCAGCAAUAUUACGGUAA | -2.35 ± 0.088 | -1.75 ± 0.076
66 | AGGCAGCAAUAUUACGUCGA | -0.305 ± 0.043 | -0.0427 ± 0.055
67 | AGGCAGCAAUAUUACGUGAU | -2.2 ± 0.14 | -0.983 ± 0.13
68 | AGGCAGCAAUAUUACGUGGU | -3.88 ± 0.14 | -1.54 ± 0.1
69 | AGGCAGCAAUAUUACGUUAA | -2.6 ± 0.15 | -1.88 ± 0.13
70 | AGGGAGCAAUAUUACGAAAG | -1.91 ± 0.14 | -2.14 ± 0.24
71 | AGGGAGCAAUAUUACGACUA | -2.2 ± 0.5 | -1.98 ± 0.32
72 | AGGGAGCAAUAUUACGAGAC | -3.09 ± 0.4 | -2.77 ± 0.36
73 | AGGGAGCAAUAUUACGAUGC | – | -2.65 ± 0.41
74 | AGGGAGCAAUAUUACGCCGA | -2.38 ± 0.25 | –
75 | AGGGAGCAAUAUUACGCUGG | -4.26 ± 0.37 | -1.67 ± 0.26

Row | Sequence | self-splicing fitness (ln) (30 °C) | self-splicing fitness (ln) (37 °C)
76 | AGGGAGCAAUAUUACGGCGC | -2.78 ± 0.5 | -1.23 ± 0.35
77 | AGGGAGCAAUAUUACGGCUU | -3.29 ± 0.25 | -1.11 ± 0.35
78 | AGGGAGCAAUAUUACGGGAA | -1.37 ± 0.38 | -2.58 ± 0.37
79 | AGGGAGCAAUAUUACGGGGA | -3.29 ± 0.34 | -2.64 ± 0.48
80 | AGGGAGCAAUAUUACGUAAG | -3.17 ± 0.2 | -2.28 ± 0.3
81 | AGGGAGCAAUAUUACGUAUG | -2.98 ± 0.3 | -2.37 ± 0.49
82 | AGGGAGCAAUAUUACGUCAC | -2.07 ± 0.24 | -2.69 ± 0.26
83 | AGGGAGCAAUAUUACGUGGG | -3.31 ± 0.2 | –
84 | AGGGAGCAAUAUUACGUUUA | -2.68 ± 0.33 | -2.33 ± 0.31
85 | AGGGAGCAAUAUUACGUUUC | – | -2.44 ± 0.24
86 | AGGUAGCAAUAUUACGAAGG | -3.908 ± 0.034 | -2.86 ± 0.046
87 | AGGUAGCAAUAUUACGAAGU | -3.22 ± 0.026 | -1.56 ± 0.037
88 | AGGUAGCAAUAUUACGACAU | 0 ± 0.009 | –
89 | AGGUAGCAAUAUUACGAGAU | -3.178 ± 0.023 | -1.91 ± 0.036
90 | AGGUAGCAAUAUUACGAGCA | -1.33 ± 0.019 | -0.51 ± 0.034
91 | AGGUAGCAAUAUUACGGAAC | -3.629 ± 0.035 | -2.2 ± 0.042
92 | AGGUAGCAAUAUUACGGAAU | -2.678 ± 0.019 | -1.29 ± 0.035
93 | AGGUAGCAAUAUUACGGACA | -0.694 ± 0.017 | -0.397 ± 0.034
94 | AGGUAGCAAUAUUACGGAUU | -1.553 ± 0.014 | -0.618 ± 0.033
95 | AGGUAGCAAUAUUACGGUAC | -3.522 ± 0.032 | -2.07 ± 0.04
96 | AGGUAGCAAUAUUACGUAGA | -3.995 ± 0.028 | -2.07 ± 0.036
97 | AGGUAGCAAUAUUACGUAGG | -3.667 ± 0.026 | -2.71 ± 0.039
